Source: the supplement of paper PMC9170038

Key:
MS2 coat protein [1] = experiment: apparent KD of MS2 coat protein, switch ON state; designed switch direction (-1 OFF switch, 1 ON switch): -1; higher = weaker reporter binding; details: FMN input: 0 or 200 uM; Eterna round: R93 (includes R88 designs)
In short: (§1)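 Each design's apparent KD comes from the median of binding-curve fits to its normalised clusters. Those clusters carried RNA switches transcribed on-chip from Illumina sequencing clusters. SNAP-549-labelled MS2 coat protein was titrated onto them in twofold steps (0.7 or 1.5 nM to 3 µM; per step 0.8–1.5 h down to 10–20 min). Conditions were 100 mM Tris-HCl pH 7.5, 80 mM KCl, 4 mM MgCl2, without or with constant ligand.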

MS2 coat protein [2] = experiment: apparent KD of MS2 coat protein, switch OFF state (with FMN for OFF switches, without FMN for ON switches); designed switch direction (-1 OFF switch, 1 ON switch): -1; higher = weaker reporter binding; details: FMN input: 0 or 200 uM; Eterna round: R93 (includes R88 designs)
In short: as §1

MS2 coat protein [3] = experiment: apparent KD of MS2 coat protein; designed switch direction (-1 OFF switch, 1 ON switch): 1; higher = weaker reporter binding; details: Eterna round: R95
In short: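 Three titration conditions were used: no input, 200 uM small-molecule ligand, and an oligonucleotide input. In each, SNAP-549-labelled MS2 coat protein was raised from 0.7 or 1.5 nM, doubling, to 3 µM over designed RNA switches transcribed on Illumina chips by stalled E. coli RNA polymerase. Curve fits of normalised cluster fluorescence gave values whose per-design median over clusters is the apparent KD.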

Row | Sequence | apparent KD of MS2 coat protein (MS2 coat protein [1]) | apparent KD of MS2 coat protein (MS2 coat protein [2]) | apparent KD of MS2 coat protein (MS2 coat protein [3]; input ligand: FMN 200 uM) | apparent KD of MS2 coat protein (MS2 coat protein [3]; input ligand: microRNA oligo, concentration not stated) | apparent KD of MS2 coat protein (MS2 coat protein [3]; input ligand: none)
1 | AAAAAACAUGAGGAUCACCCAUGUAAGGAUAUACCUAAAAAAAAAAAAAAAAAAAAUGGUAGAAGGUACAAAAA [excalibur12] | 28.1 nM | 67.5 nM | – | – | –
2 | AAAAAACAUGAGGAUCACCCAUGUAAGGAUAUGCGAAAAUAAAAUAAAAUAAAAUAAAGCAGAAGGUACAAAAG [Mat - Exclusion 1 - Eli mod - D3] | 28.8 nM | 49.5 nM | – | – | –
3 | AAAAAACAUGAGGAUCACCCAUGUAAGGAUAUGCUAGGAAAAAGAAAAAUAAAAACUAGCAGAAGGUACAUGAA [JL wbt mod 11] | 33.2 nM | 113 nM | – | – | –
4 | AAAAAACAUGAGGAUCACCCAUGUAAGGAUAUGCUAGGAAAAAGAAAAAUAAAAACUAGCAGAAGGUACAUUAA [JL wbt mod 9] | 26.6 nM | 38.3 nM | – | – | –
5 | AAAAAACAUGAGGAUCACCCAUGUCAGGAUAUACAAAAGAAAAGAAAAAGAAAAGAAAGUAGAAGGGACAAAAA [mod1] | 23 nM | 24.6 nM | – | – | –
6 | AAAAAACAUGAGGAUCACCCAUGUCAGGAUAUCGUCAUAGAUGCAAAAGCAUCUAUGACGAGAAGGGACAUGCC [JL EX1 03] | 103 nM | 64.6 nM | – | – | –
7 | AAAAAACAUGAGGAUCACCCAUGUCAGGAUAUGCUAUGGAAAAUAAAAAUAAAACAUAGCAGAAGGGACACCAA [64%, Meechl, 2] | 32.8 nM | 58.1 nM | – | – | –
8 | AAAAAACAUGAGGAUCACCCAUGUCAGGAUAUUUCUAAAAAAAAAAAAAAAAAAAAUGAAAGAAGGGACAAAAA [excalibur 6] | 58 nM | 52.5 nM | – | – | –
9 | AAAAAACAUGAGGAUCACCCAUGUGAGGAUAUCAGUAGUCAGUCCUCGGAGUGAGUACUGAGAAGGCACAUAAA [Brourd 613 Mod 2- Jieux - Exclusion 1] | 65.9 nM | 113 nM | – | – | –
10 | AAAAAACAUGAGGAUCACCCAUGUGAGGAUAUCGGUAGUGAGGGUAUAGUGUCAAUAGUGAGAAGGCGCAUAAA [Brourd 613 Mod 13 - Jieux - Exclusion 1] | 26.3 nM | 28 nM | – | – | –
11 | AAAAAACAUGAGGAUCACCCAUGUGAGGAUAUGAAAUUACUAAGACAACUGUAAUCAAUCAGAAGGCACAACAA [JR_Exc--1_Sub1207] | 23.6 nM | 38.6 nM | – | – | –
12 | AAAAAACAUGAGGAUCACCCAUGUGAGGAUAUGCAAAACCCAAAUAAAAAGAGAAAAAGCAGAAGGCACAACAA [wbt round 1 mod 3] | 15.7 nM | 13.8 nM | – | – | –
13 | AAAAAACAUGAGGAUCACCCAUGUGAGGAUAUUGGUAUUGAGGGUAUAAUCUCAAUAGCGAGAAGGCGCAUAAA [Brourd 613 Mod 14 - Jieux - Exclusion 1] | 31.7 nM | 45.3 nM | – | – | –
14 | AAAAAAGGAGGAUAUACGAACAUGUCAAAAGACGUGAAGGGACAUGAGGAUCACCCAUGUAGAAGGCUUAAAAA [JL Stem Breaker 4] | 42.2 nM | 19.2 nM | – | – | –
15 | AAAAACGCAGGAUAUACAUGAGGAUCACCCAUGUAAAAAAAAAAAAAGGGAAAAAAAAGUAGAAGGGCGAAAAA [Menkhaure Snaaib] | 21.4 nM | 43.3 nM | – | – | –
16 | AAAAAGAGAGGAUAUACAUGAGGAUCACCCAUGUAAAAAAGAAGAAAGAAAAAAAAAUGUAGAAGGCUCAAAAA ['Exclusion 3'] | 35.9 nM | 34.3 nM | – | – | –
17 | AAAAAGAUAGGAUAUACGAACAUGUCGAAAGACGUGAAGGGACAUGAGGAUCACCCAUGUAGAAGGAUUAAAAA [Mat - Exclusion 2 - JL mod - D89] | 41.9 nM | 16.8 nM | – | – | –
18 | AAAAAGGAAGGAUAUACGAACAUGUCGAAAGACGUGAAGGGACAUGAGGAUCACCCAUGUAGAAGGUUCAAAAA [Mat - Exclusion 2 - JL mod - D80] | 33.6 nM | 19.3 nM | – | – | –
19 | AAAAAGGCAGGAUAUACAAAAAAAAAAAAAGAGGAGGAGGGACAUGAGGAUCACCCAUGUAGAAGGGCCAAAAA [William Edward Burghardt 'W. E. B.' Du Bois] | 35.4 nM | 63.7 nM | – | – | –
20 | AAAAAGGCAGGAUAUGCAUACACACGAAAAAAAAAACUGGGACAUGAGGAUCACCCAUGUAGAAGGGCCAAAAA [Dora Explored 9 - Jieux - Exclusion 2] | 67.5 nM | 41.9 nM | – | – | –
21 | AAAAAGGUAGGAUAUACAUGAGGAUCACCCAUGUGAAAAGAAAAUAAGAAAAGAAAGUGUAGAAGGACCAAAAA [JL JSci Mod In the Red] | 33 nM | 44.1 nM | – | – | –

Row | Sequence | apparent KD of MS2 coat protein (MS2 coat protein [1]) | apparent KD of MS2 coat protein (MS2 coat protein [2]) | apparent KD of MS2 coat protein (MS2 coat protein [3]; input ligand: FMN 200 uM) | apparent KD of MS2 coat protein (MS2 coat protein [3]; input ligand: microRNA oligo, concentration not stated) | apparent KD of MS2 coat protein (MS2 coat protein [3]; input ligand: none)
22 | AAAAAGGUAGGAUAUACGAAAAAAAAAAGGUGAAAAAAAAAACAUGAGGAUCACCCAUGUAGAAGGACCAAAAA [Ex 2 sub 1 70% 3] | 36.5 nM | 62 nM | – | – | –
23 | AAAAAGGUAGGAUAUGCAAAAAAUAAUUUAAAAAAAAAAAAACAUGAGGAUCACCCAUGUAGAAGGACCAAAAA [Design 2.0] | 25.9 nM | 28.8 nM | – | – | –
24 | AAAAAGUCAGGAUAUCUGGAUAGGAAAAAGAAAACCUAUCCAGAGAAGGGACAUGAGGAUCACCCAUGUAAAAA [JL cataway mod 1] | 49.2 nM | 42.4 nM | – | – | –
25 | AAAAAGUGAGGAUAUACGGUGAGGAGUAGACACAACCUGGCGUAGAAGGCACAUGAGGAUCACCCAUGUCCAAA [EX4 Malc#13] | 37.3 nM | 47.8 nM | – | – | –
26 | AAAAAGUGAGGAUAUGCGCUGUGGAGUAGACACGACCAGUCGUAGAAGGCACAUGAGGAUCACCCAUGUUCAAA [EX4 Malc#21] | 27.4 nM | 25.3 nM | – | – | –
27 | AAAAAUCGAGGAUAUACAUGAGGAUCACCCAUGUAAAAAAAAAAAAAGGGAAAAAAAAGUAGAAGGCGAAAAAA [Sekhemre-Heruhirmaat Intef VII] | 58 nM | 30 nM | – | – | –
28 | AAAAAUGGAGGAUAUACAUGAGGAUCACCCAUGUGAGACCAAGAAAAAGAAAAAGAAAGUAGAAGGCCAUAAAA [Ex 3 May 24] | 24.5 nM | 152 nM | – | – | –
29 | AAAACACAUGAGGAUCACCCAUGUGAGGAUAUGCAUAAAAAAAAAAAAAAAAAAAAAUGCAGAAGGCACAUAAA [jn_camden] | 21 nM | 41.3 nM | – | – | –
30 | AAAACGUGAGGAUAUGCACCAAAAAAGGUAAAACGGGUACGACAUGAGGAUCACCCAUGUAGAAGGCACGAAAA [Frodo Flailing 10 - Jieux - Exclusion 2] | 46 nM | 107 nM | – | – | –
31 | AAAACUGGAGGAUAUACGAACAUGUCAAAAGACGUGAAGGGACAUGAGGAUCACCCAUGUAGAAGGCUAGAAAA [JL Stem Breaker 10] | 52.3 nM | 34.2 nM | – | – | –
32 | AAAAGCACAGGAUAUACAAGGAUAUGACGAAAGUCAUAAAAACAUGAGGAUCACCCAUGUAGAAGGGUGCAAAA [Mod of Meechl's... 64% 3] | 206 nM | 136 nM | – | – | –
33 | AAAAGGAUAGGAUAUACAUGAGGAUCACCCAUGUUUAUAAAUAAAAGAAAUAAAGAAAGUAGAAGGGUCAAGAA [LROPPY Exclusion 3 - v07_deltaG=3.4] | 19.6 nM | 22.4 nM | – | – | –
34 | AAAAGGUGAGGAUAUACAUGAGGAUCACCCAUGUAGAAAGGAAGUGUAAAAAAAAAGUGUAGAAGGCAUCAUGA [MS2 Riboswitches On Chip Exclusion 3 wbt3] | 39.2 nM | 48 nM | – | – | –
35 | AAAAGGUUAGGAUAUGCGUGGAAAAAGUGUAUCUAAAAAAAACAUGAGGAUCACCCAUGUAGAAGGGACUUAAA [Banishment 5 - Jieux - Exclusion 2] | 49.7 nM | 37.1 nM | – | – | –
36 | AAAAUACAUGAGGAUCACCCAUGUUAGGAUAUCGGAUAAAUAAAAUAAAAUAAAAUAACGAGAAGGGACAAUAA [Exclusion1 Malc#2] | 24.6 nM | 31.6 nM | – | – | –
37 | AAAAUGUCAGGAUAUGUACGAAAAAAUAAAAAAAUAAAAGUACAGAAGGGACAUGAGGAUCACCCAUGUCAGGG [EX4 392: Minimal 4] | 97.9 nM | 74.6 nM | – | – | –
38 | AAACAACAUGAGGAUCACCCAUGUCAGGAUAUGAACGAAAUAAAAUAAAAAUAAAAGUUCAGAAGGGACGAAAA [Mat - Exclusion 1 - Eli mod - D18] | 36.7 nM | 50.1 nM | – | – | –
39 | AAACCACAUGAGGAUCACCCAUGUAAGGAUAUGAACGAAAUAAAAUAAAAAUAAAAGUUCAGAAGGUACAAAAA [Mat - Exclusion 1 - Eli mod - D22] | 22.6 nM | 22.1 nM | – | – | –
40 | AAACCACAUGAGGAUCACCCAUGUCAGGAUAUGAACGAAAUAAAAUAAAAAUAAAAGUUCAGAAGGGACGAAAA [Mat - Exclusion 1 - Eli mod - D17] | 27.3 nM | 33.8 nM | – | – | –
41 | UUUUUUUUUUCGAGACAAGCUUUUUGAUCACAUGAGGAUCACCCAUGUCUCGUCUUAUUUUUUUUUUUUUUUUUUUU [BA Sensor hsa-mir-208a - 2 - 1] (puzzle: Sensor for hsa-mir-208a) | – | – | 343 nM | 33.6 nM | 21.3 nM
